Measurements from the nanobody polyreactivity screen of Harvey et al. (2022).

Assay: yeast display, Sf9 membrane polyspecificity reagent, FACS + sequencing; frameworks hold sequencing errors
Outline: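 A nanobody's polyreactivity label depends on the gate it was sorted from. Yeast display cells were stained with 10% biotinylated, detergent-solubilized Sf9 membrane reagent for 1 hour at 4 °C, enriched on streptavidin microbeads and sorted by FACS. The low and high (top ~1%) gates were set on anti-HA fluorescence for expression and streptavidin fluorescence for reagent binding.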

| Sequence | polyreactivity (PSR sort gate) |
| --- | --- |
| QVQLVESGGALVQAGGSLRLSCAASGSIFDQYTMRWYRQAPGKDRELVAAIRFSGGSTSYADSVKGRFTISRDNAKNTVYLQMNSLKPDDTAVYYCNADSQPWRFGYWGQGTQVTVSS | low polyreactivity |
| QVQLVESGGGLVQAGGSLRLSCAASGLTFRANAMGWYRQAPGKERELVAAISWRGGGTYYADSVKGRFTISRDNAKNTVYLQMNSLKPEDTAVYYCDAKTQNAYYWGQGTQVTVSS | low polyreactivity |
| QVQLGESGGGLVQAGGSLRLTCAASGLIFYRNARGWYRQAPGKERELVAAISKNGGNTYYADSVKGRFTISRDYAKNTVYLQMNSLKPEDTAVYYCAARELYGPFGYWGQGTQVTVSS | high polyreactivity |
| QVQLVESGGGLVQAGGSLRLSCAASGRIFSTYAMGWYRQAPGKERELVAAINSIGGRTYYADSVKGRFTISRDNAKNTVYLQMNSLKPEDTAVYYCAAGYRTRRGLGYYYWGQGTQVTVSS | high polyreactivity |
| QVQLVESGGGLVQAGGSLRLSCAASGRTFGRYAMGWSRQAPGKERELVATITSGGSTNYADSVKGRFTISRDNAKNTVYLQMNSLKPEDTAVYYCAAEFSPSRWAYSEGALRYNYWGQGTQVTVSS | low polyreactivity |
| QVQLVESGGGLVQAGGSLRLSCAASGYIFAYTAMGWYRQAPGKEREFVAVITRSDDSTYADSVKGRFTISRDNAKNTVYLQMNSLKPEDTAVYYCAAQPFVIDGGYRGDYWGQGTQVTVSS | low polyreactivity |
| QVQLVESGGGLVQAGGSLRLTCAASGSTFYIYAMGWDRQAPGKEAEFVAAIDFSGSSTYADSVKGRFTISRDNAKNTVYLQMNSLKPEDTAVYYCAAYQIYQYDGPYDYWGEGTQVTVSS | low polyreactivity |
| QVQLVESGGCLVQAGGSLRLSCAASGSTLRSHAMGWYRQAPGKERELVASISAGGSTSYADSVKGRFTISRDNAKNTVYRQMNSLKPEDTAVYYCAADNSVGSYDYWGQGTEVTVSS | low polyreactivity |
| QVQIVESGGGLVQAGGSLRLSCAASGSIFFAYAMGSYRQAPGKERELVAAITGSGGSTYADSVKGRFTISRDNAKNTVYVQMNSLKPEDTAVYYCAKDHYYYPYKRLFVGHEYWGQGTQVTVSS | low polyreactivity |
| QVQLVESGGGLVQAGGSLRLSCAASGRIFDRYAMGWYRLAPGKERELVAAITTSSGGSTYYADSVKGRFTISRDNAMNTVYLQMQSLNPEDTAVYYCAADRRYNVIGEFGYWGQVTQVTVSS | low polyreactivity |
| QVQLVESGGGLDQAGGSLRLSCAASGSTFGYYAMAWYRQSPGKERELVAAITSGASTNYADSVKGRFTISRDNAKNTVYLQMNSLKPEDTAVYYCAAGFQTRTPLNEFDYWGQGTQVTLSS | low polyreactivity |
| QVQLVESGGGLVQAGGSLRLSCGASGRIFATNAMGWYRQAPGKERELVATITRSAGRTYYADSVKGRFTISRDNAKNTVYLQMNSLIPEDTAVYYCAASYLDSEPGYREYDYWGQGTQVTVSS | low polyreactivity |
| QVQLVESGGGLVQAGGSLRLSCAASGSTFIFYVMGWNRQAPGKERELVASITGNGTSTYYADSVKGRFTISRDNAKNTVYLQMNSLKPEDTAVYYCNAVFSPSRYDYWGQGTQVTVSS | low polyreactivity |
| QVQLVESGGGLVQAGGSLRLSCAASGRTFSYYAMGWYREAPGNERELVAAITTGGRTYYADSVKGRFTISRDNAKNTVYLQMNSLKPEDTAVYYCAADYTVSYPYYEYYYWGQGTQVTVSS | high polyreactivity |
| QVQLVESGGGLVQAGGSLRLSCAASGFTFPWYAMGWYRQAPGKERELVAAITSGGGSTYYADSVKGRFTISRYNAKNTVYLQMNSLKPEDTAVYYCATSYTKQGFRYYYWGQGTQVTVSS | high polyreactivity |
| QVQLVESGGGLVQAGGSLRLSCAASGLIIPYYAMGWSRQAPGKERELVAGITSDGSTNYADSVMGRFTISRDNAKIIVYLQMYSLKPVDTAVYYCAKEQGLYSVSPYDYWGQGTQVSVSS | low polyreactivity |
| QVQLVESGGGLVQAGGSLRLSCAASGSIFWGNAMGWYRQAPGKERELVAAIDWSGGSTYYADSVKGRFTISRDNAKNTVYLQMNSLKPEDTAVYYCAADYLGGGDVGFDYWGQGTQVTVSS | low polyreactivity |
| QVQLVESGGGLVQAGGSLRLSCAASGFTFDAYDMGWYRQAPGKERELVAAISWRGIDTTYADSVKGRFTISRDNAKNTVYLQMNSLKPEDTAVYYCAEFVSDATVGPSKGLDYWGQGTQVTVSS | low polyreactivity |
| QVQLVESGGGLVQAGGSLRLSCAASGRTFSIYVMGWYRQAPGKERELVAAITSGGRTYYADSVKGRFTISRDNAKNTVYLQMNSLKPEDTAGYYCAAGYWRPGQYYSRYNYWGQGTQVTVSS | high polyreactivity |
| QVQLVESGGGLVEAGGSLRLSCAASGSIFSYNAMGWYRQAPGKERELVAAITDGGDRTYYADSVKGRFTISRDNAKNTVYLLMNSLIPEATAVYYCAAELYSYREDYGAHFAYEYWGQGTQVTVSS | low polyreactivity |
| QVQLVQSGGGLVQAGGSHRLSCAASGSTFKPYALGWYRQSPGKETELVAASSRGTRTYADSVKGRFTISRDNAKNTVYLQMNSVKPEDTAVYYCAAEWRLTFGYHYEFDYWGQGTQVTVSS | low polyreactivity |
| QVQLVESGGGLVQAGGSLRLSCAASGITFITYVMGWYRQAPGKERELVAAISLRGGRTSYADSVKGRFTISRDNAKNTVYLQMNSLKPEDTAVYYCAARAYYTRYDFWGQGTQVTVSS | high polyreactivity |

| Sequence | polyreactivity (PSR sort gate) |
| --- | --- |
| QVQLVESGGGLVQAGGSLRLSCAASGFTSFANAMGWYRQAPGKERELVASITNSGGSTHYADSVKGRFTISRDNAKNTVYLQMNSLKPEDTAVYYCAADYWIVYRIYGSKYLGKWYDYWGQGTQVTVSS | low polyreactivity |
| QVQLVESGGGLVQAGGSLRLSCAASGSTFTTYAMGWYRQAPGKERELVAVITDSGGTYYADSVKGRFTISRDNAKNTVYLQMNSLKPEDTAVYYCNRFFPPTDYEFDSWGQGTQVTVSS | low polyreactivity |
| QVQLVESGGGLVQAGGTLPLTCAASGSTYYVYAMGCDRQAPGKEREFVAAITGSDGSTYYADSVMGRFTISRDNAKNTVYLQMNSLKPEDTAVYYCAADYYLQNYETGYGYWGQGTQVTVSS | low polyreactivity |
| QVQLVESGGGLVQAGGSLRLSCAASGFTFVYNAMGWYRQAPGKERELVAAITSGGNTYYADSVKGRFTISRDNAKNTVYLQMNSLKPEDTAVYYCAKVQNGQWSTSRVPGDYQYNYWGQGTQVTVSS | high polyreactivity |
| QVQLVESGGGLVQAGGSLRLSCAASGSTFYYYAMGWYRQPPGKERELVASITTGGGSTYYADSVKGRFTISRDNAKNTVYLQMNSLKPEDTAVYYCAAALAYYYWWYDYWGQGTQVTVSS | low polyreactivity |
| QVQLVESGGGLVQAGGSLRLSCAASGRTFNYYAMGWYRQAPGKERELVAAISWSGTPTYYADSVKGRFTISRDNAKNTVYLQMNSLKPEDTAVYYCAAGYNYTSYADLDYWGQGTQVTVSS | low polyreactivity |
| QVQLVESGGGLVQAGGSLRLSCAASGRISRLYAMGWYRPAPGKERELVAAITDSGGSTYYADSVKGRFTISRDTAKNTVYLQMNSLKPEDTAVYYCAATWSNWYREYYYWGQGTQVTVSS | high polyreactivity |
| QVQLVESGGGLVQAGGSLRLSCAASGSISVRNVMGWYRQAPGKERELVATIRRTGGSTSYADSVKGRFTISRDNAKNTVYVQMNSLKPEDTAVYYCAAVGYTTYRRYDYWGQGTQVTVSS | low polyreactivity |
| QVQLVESGGGLVQAGGSLRLSCAASGFTLEFYAMGWYRQAPGKERELVASISSGGRTNYADSVKGRFTISRDNAKNTVFLQMNSLKPEDTAVYYCAAEYRSWGRYRYRFNYWGQGTQVTVSS | high polyreactivity |
| QVQLVESGGGLVQAGGSLRLSCAASGSIFVSYAMGWYRQAPGKERELVAAITGRTGSTYYADSVKGRFTISRDNAKNTVYLQMNSLKPEDTAVYYCAARHKQHNRYDYWGHGTQVTVSS | low polyreactivity |
| QVQLVESGGGLVQAGGSLRLSCAASGRNFILNAMGWYRQAPGKERELVAAISWSGGSTYYADSVKGRFTISRDNAKNTVYLQMNSLKPEDTAVYYCAAETYAYLFHTYDYWGQGTQVTVSS | low polyreactivity |
| QVKLVDSGGGLVQAGGILRLSCAASGRIFSDYAMGWYRQAPGKERELVATITSGDSTNYADSVKGRFTISRDNAKNTVYLQMNSLKPEDTAVYYCNADRVYVRGRFTYDYWGQGTQVTVSS | low polyreactivity |
| QVQLVESGGGLVQAGGSLRLSCAASGRTFRYNAMGWYRQAPGKERELVAAISGRGSSTYYADSVKGRFTISRDNAKNTVYLQMNSLKPEDTAVYYCAADRFRLYVGGWWYDYWGQGTQVTVSS | high polyreactivity |
| QVQLVESGGGLVQAGGSLRLSCAASGRTFGRYAMGWYRQAPGKEREFVASMSRRGGTTYYADSVKGRFTISRDNEKNTVYLQMNSLNPEDTAVYYCNADRTVIYDYEYWGQGTQVTVSS | low polyreactivity |
| QVHLVESGGGLVQAGGSLRLSCAASGSTFAYNAMGWYRTAPGKERELVAAISSSGGRTYYADSVKGRFTLSRDNAKNTVYLQMISLKPEDTAVYYCNAAYYYTYGYWGQGTEVTVSS | high polyreactivity |
| QVHLVESGGGLVQAGGSLRLSCAASGNTFYKYTMGWYRQAPGKERELVAVISSSSGSTYYADSVKGRFTISRDNAMNTVYLQMNSLKPEDTAVDYCNKRGWWDLRHDYWGQGTQVTVSS | low polyreactivity |
| QVQLVESGGGLVQAGGSLRLSCAASGSIFGSYAMGWYRQAPGKERELVAVITSSGNTKYADSVKGRFTISRDNAKNTVYLQMNSLKPEDTAVYYCAARFITWCSQYSFRSMDYWGQGTQVTVSS | high polyreactivity |
| QVQLVESGGGLVQAGGSLLLSCAASGIIFRYNTMGLYRQAPGKERELVAAIRTTGGSTNYADSVKGRFTISRDNAKNTVYLQMNSLKPEDTAVYYCNKGVSSRAFDYWGQGTQVTVSS | low polyreactivity |
| QVQLVESGGGVVQAGGSLRLSCAASGSIFYSYAMGWYRQAPGKERELVAAISSSGTSTYYADSVKGRFTISRDNAKNTVYLQMNSLKPEDTAVYYCAARFYGTSYYRYNYWGQGTQVTVSS | high polyreactivity |
| QVQLVESGGGLVQAGGSLRLSCAASGSTYYLYAMGWYRQAPGKESEFVARISASGGNTYYADSVKGRFTISRDNAKNTVYLQMNRLIPEDTAVFYCAARVRGRNASDYDYYYWGQGTQVTVSS | high polyreactivity |
| QVQLVESGGGLVQAGGSLRLSCAASGLTFEYYDMGWYRQAPGKERELVAAITGSDDSTYADSVKGRFTISRDNAKNTVYLQMNSLKPEDTAVYYCAASYRAWSGNYWGQGTQVTVSS | high polyreactivity |
